Results as given in the supplement of paper PMC12042874.
± gives the uncertainty stated by the source.

assay: amyloid nucleation score (Sup35N fusion, yeast selection) (log enrichment); library NNK1; higher = more nucleation; inactive = no reads after selection
Summary of the method: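 Nucleation score: DiMSum log enrichment of output over input reads, centred on the mode score of non-aggregating sequences. Only sequences with at least 100 input reads were kept. Reads came from Illumina sequencing of plasmid inserts before and after 7 days of growth at 30°C without adenine and uracil, in psi-negative yeast expressing Sup35N fused to peptides of 20 random codons after 24 hours of induction with 100 μM copper sulfate.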

Row | Substance | amyloid nucleation score
1 | SHTRQ | -0.223 ± 0.91
2 | RLIFEVFYLTFRVLT | -0.457 ± 0.39
3 | VQNTWVILRKL | 4.43 ± 0.095
4 | MRTLWVSKSGIRG | -0.15 ± 0.72
5 | SYSKGGMSPFWWTTHRCDIM | 2.09 ± 0.35
6 | RKAIFTSFSQ | inactive
7 | FVVIEILDFSPFDHCFIILE | 1.26 ± 0.48
8 | SVSLFMITVFNVTC | 2.4 ± 0.14
9 | GGLGTPFFHAPSHMWVKW | -0.551 ± 0.55
10 | VELCHIRSLMFLIQHP | 1.05 ± 0.21
11 | DLQSSSDNLLGYMCFSCCKH | -0.463 ± 0.98
12 | VFFNLIKRWEVVREDTM | -0.426 ± 0.35
13 | NLSAVRLAYLPCVSHTHCAV | 0.875 ± 0.45
14 | TERFMYFKNLFVSSWTSHG | 1.51 ± 0.14
15 | LRYILFKNPSPNNIESL | -0.194 ± 0.53
16 | FTLIIRDLMFSRHEFRVHAG | -0.213 ± 0.39
17 | LAPISSASLQTFPVAIFRFR | 0.122 ± 0.43
18 | IGWCWVIMQGNIEQVDRG | 4.72 ± 0.074
19 | VGHNGIFYC | -0.063 ± 0.29
20 | LPTIHICLRSAHTRWFA | -0.438 ± 0.87
21 | NVKICDGAIIYMSSMASFEL | 4.79 ± 0.092
22 | RDHTIRPLWIAGSHMQFLNR | 0.477 ± 0.34
23 | INAQAVIGNFRGRYSVYNVH | 4.23 ± 0.065
24 | YWAKCGWQAGKRYEV | 0.803 ± 0.77
25 | NRTYVGWEVILPKVWNSSVY | -0.663 ± 0.61

Row | Substance | amyloid nucleation score
26 | DLSSRFGRVETERGGKVKCQ | -0.299 ± 1.1
27 | AFNRSKQSIKAFSA | -0.369 ± 1.2
28 | LFRLIAFWDWLYSWNRFFGW | 0.481 ± 0.43
29 | DGGICYD | 0.733 ± 0.31
30 | QYHLWFMCAAVDRMKNGPFG | 0.049 ± 0.36
31 | VWLSMEFLCVYTCMPCWSQL | -0.423 ± 0.55
32 | GVNLRSNRESSVCDNWRGLR | 0.423 ± 0.42
33 | DCGRWNRKRPNSVLGVYL | 1.48 ± 0.88
34 | MLVPRSRIRIPACRFQHRLP | -0.064 ± 0.35
35 | SKVVGGESKVQ | 1.05 ± 0.6
36 | SFTWRQNQVGNA | 1.24 ± 0.4
37 | FVLQKGYK | 0.2 ± 0.59
38 | VFNVGYLV | -1.21 ± 0.55
39 | INFQNDELWVLETIGFHTYP | -0.256 ± 0.49
40 | LGISPVSTGKKVNEDVYSGF | 0.618 ± 0.79
41 | GKVFVVSVKCNEVVDFGWCQ | 0.073 ± 0.28
42 | HRSYHYMLLHTLEDRCRKN | inactive
43 | TACRLQYSNSYLFLSSAEPV | 1.28 ± 0.69
44 | STDSCVALSMATWF | 0.188 ± 0.46
45 | GSDCSKAAFDPPFRSYDNAT | 0.429 ± 0.33
46 | DKTECDQCIKSG | -0.691 ± 0.42
47 | GRGLADISYVYRDVWICLAI | 0.83 ± 0.43
48 | LEYSS | -0.145 ± 0.41
49 | MIRQFSVSICSTRSVCVHPR | -0.135 ± 0.59
50 | FSFSIAMVNLVEDATVDCAG | -0.048 ± 0.31

Row | Substance | amyloid nucleation score
51 | LSIWFFVYVLVG | 0.043 ± 0.78
52 | SLLTWFREYVDYTLYQWPGY | -0.131 ± 0.76
53 | AERPSLYWLKLRKRRITVV | 0.46 ± 1.2
54 | NNTFGLGNFTDSFCNIRSEK | 0.572 ± 0.39
55 | MDSRAVYYF | inactive
56 | WYIVGSFTGITLVVNLALNL | inactive
57 | RCMNWVKCDRNPCVMLSIGT | inactive
58 | WLWPPLACDHMPIAVSETDA | -0.775 ± 0.99
59 | YWILQV | 0.299 ± 0.73
60 | CTSVRVLGSNQCSYGVSKCR | -0.39 ± 0.39
61 | SIFIAGWGCISYKRRVACFR | inactive
62 | PIVLWTIIPNTFKS | 1.25 ± 0.17
63 | RTPFNVDPKPTDPRNTRCST | 0.822 ± 0.93
64 | QNMWIHCWCGRGGMMTREPG | 4.73 ± 0.052
65 | AFNYRSVCWLLGTGSSSWSE | inactive
66 | YLVTYVLSIRNCGIYIWIRR | 0.413 ± 0.49
67 | AKLAS | 0.151 ± 0.59
68 | YCSSVEVGVYLNVLICFSGL | 3.18 ± 0.062
69 | CFSGPPMTESVYNPTSGNEH | 0.152 ± 0.72
70 | LIGFSRVSSGFSPFTPAHCR | 2.04 ± 0.14
71 | AKSWCVSIKLVSDNSYLWET | 1.12 ± 0.14
72 | VLKHFGFCMLPNISAY | 0.386 ± 0.4
73 | SADQIYHKGQWHSWTNSTNQ | 0.35 ± 0.29
74 | LYYYEQH | -0.388 ± 0.54
75 | LEWANDLVNCSQRIM | -0.331 ± 0.88

Row | Substance | amyloid nucleation score
76 | PNPWRLRWLLALDMNLVGLQ | 0.376 ± 1.1
77 | LVHVGSQHKTFTPCSMEFLI | inactive
78 | FVGEN | 0.281 ± 0.52
79 | CLMGTHILGSRVVGTPSMVR | 0.47 ± 1.2
80 | SMFGFTYIVGRMDGSIGWSL | 0.647 ± 0.22
81 | FGICKYFNRFVMNIRSVDES | -0.618 ± 0.52
82 | RMFVGWHSLERIL | 1.21 ± 0.43
83 | YILVNMMGVWVVKVTHKVN | inactive
84 | SCGTYFLFICHKSLYWHVHI | -0.594 ± 0.9
85 | FSGCGWYRTVDYGGP | inactive
86 | EVRSSFYPSHYYRALRDL | -1.37 ± 2.4
87 | TGRVFLLYAAQ | -0.368 ± 0.88
88 | FLTIYGLNPSDYVGKVRQRD | 0.236 ± 0.34
89 | ATCLLAFMNFVSILERRSES | 1.86 ± 0.21
90 | YKLLYGYWLDWREGRNHKPK | 0.479 ± 0.32
91 | RASHGAYDNFRGKKFMMRVM | -1.01 ± 0.54
92 | GSHNAR | 0.086 ± 0.97
93 | NNLILPGWM | -0.612 ± 0.55
94 | KAPKYRDRRVGVNVKYWYMP | 0.058 ± 0.66
95 | RCYVDKSYNGDWASSAGQKH | 0.065 ± 0.44
96 | YIWFC | 6.28 ± 0.071
97 | SFRCGSNNSIHD | -2.02 ± 1.7
98 | LVLFVTFGWCIDELRWMKRR | -0.51 ± 2.1
99 | KGLLTGSCVDSS | -0.015 ± 0.51
100 | CTYTAPYAPSLMPGPRVGYI | inactive

Row | Substance | amyloid nucleation score
101 | LDVLWTGSRSAAA | -0.05 ± 0.38
102 | SCWPCQ | -1.09 ± 2.4
103 | VIGYWGW | -0.164 ± 0.4
104 | VEAPGLSCAIRGWNTVVIRR | 0.387 ± 0.49
105 | RVVRSATADITACMSLNIYR | 0.879 ± 0.56
106 | SHSFPGMWTDDTSALASREK | 0.306 ± 0.59
107 | GSLSVAATSFTVMYRVKLVF | 0.085 ± 0.58
108 | IVRDFMVLINR | -0.911 ± 1.3
109 | RSTSF | inactive
110 | NFPVVW | 0.286 ± 0.28
111 | NMIKYVTLKMRL | 0.328 ± 0.6
112 | FISRCSFAGSCVK | -1.27 ± 1.7
113 | DMDTQEFLYCSSVKFGSTKD | 5.408 ± 0.047
114 | VLGPRWECMNRTYWRRTMVV | -0.011 ± 0.31
115 | SDRSLVGRNAGM | -0.468 ± 0.65
116 | FLCLLMFPIRHRL | 0.004 ± 0.33
117 | FCVRICNCRIWCLCSLTKSL | -0.624 ± 0.46
118 | QPFALNRLYHT | -0.591 ± 0.62
119 | SVMAGSYITPVRMRKKKLFV | inactive
120 | GISCFHW | 1.98 ± 0.18
121 | VWRTQMFRV | 0.37 ± 1.1
122 | LCRVVGYRSPHWQVRGLSVV | -0.215 ± 1.7
123 | FSTAM | 0.895 ± 0.79
124 | VREYMTFQDMYLSGVSTVTL | 1.08 ± 0.61
125 | DDFAMLE | inactive

Row | Substance | amyloid nucleation score
126 | IHESTWSVKGSWVHQRGPGP | 2.56 ± 0.21
127 | ALPAMTQDKWHMNALRNYLD | 1.48 ± 0.81
128 | FRSFLVPACYHGFGDGYMFF | -0.439 ± 0.77
129 | NIHVSKVGGLGTNLCYARNA | 1.77 ± 0.51
130 | LYQKHWVLSTALE | inactive
131 | WLGMRMVGNVVERLYSVRCQ | -0.111 ± 0.7
132 | RSSWQMSPNMLLTNLNCCSS | 6.367 ± 0.047
133 | DFGLCHAQNSITQAPDR | -0.153 ± 0.93
134 | YKGWYFFYVCFSKLSIGS | -0.305 ± 0.72
135 | MFMSWVDFNLD | 0.066 ± 0.29
136 | ACHCNIFFHR | 6.325 ± 0.058
137 | DAGNVLARLDGFNAG | -0.121 ± 0.49
138 | VSWENPSINLRRADLPCPLF | 0.521 ± 0.57
139 | FASWFFMCRDGGLIM | -0.573 ± 0.66
140 | FSQVSEEIIGVFLSISYCIL | 2.93 ± 0.074
141 | RRCSEM | 0.853 ± 0.4
142 | HLWSFAEMLNNHAVEDCVCT | inactive
143 | VLGLLITGDRLS | 0.1 ± 1.4
144 | AYSVRICLDFGKNG | inactive
145 | IALRL | 0.91 ± 0.4
146 | LLDLDVTLIRNHWWFKSLLA | -0.047 ± 0.41
147 | STVRSAPFSWLPGKYGWSKC | -0.214 ± 0.98
148 | FIDRIYSIVYGVGGCMMSLI | 0.008 ± 0.47
149 | TRSYNWARCTLSGVALGQGQ | -0.724 ± 2.4
150 | VGTLSRLSFYVVDAVSAQRG | 0.756 ± 0.81

Row | Substance | amyloid nucleation score
151 | FSKTAGEVAYSLTESTDVRS | -1.26 ± 0.88
152 | FMIVKFLIL | 1.5 ± 0.26
153 | ERFLFGSMSTYANGRCVGAY | -1.11 ± 2.4
154 | NCLVAFYLKGYSCWWRFIIC | 1.53 ± 0.52
155 | CCRARDLIYLNITHAFFSIL | -0.289 ± 0.47
156 | QHLRFSFVPE | 0.312 ± 0.46
157 | SFVFLRNL | 0.142 ± 0.32
158 | ILRAFWESGHTGGVWATVSS | -1.19 ± 0.77
159 | NNNESEWMRGFSLKEGPTQE | 0.111 ± 0.84
160 | EMNVSILKHAYSQALSFARW | -0.068 ± 0.45
161 | VGSHVRREFCELVYRS | -0.303 ± 0.44
162 | SKLMRVVCVVISVAYTWNEE | 0.188 ± 0.32
163 | EDPVLSREGCKQVNPWILWG | 0.201 ± 1.4
164 | WSMLSADSRISYYIYQCSLF | 2.31 ± 0.32
165 | FVCRFQYFSRYATNYFYVWC | inactive
166 | VQNKYRFTLY | 1.65 ± 0.33
167 | CTVDMEGFGFSRIVVDRGRS | -0.118 ± 0.6
168 | VAGCNVDIDVNMSCRGDMWK | 2.81 ± 0.12
169 | PVCHLSGFFFLYDSGCSD | 4.82 ± 0.069
170 | KHCTRFRVRRMYYDVTKILL | inactive
171 | ISGFGVIVWGVVSWVWYGTN | -0.268 ± 0.7
172 | HSKLFFLWHPWWL | inactive
